Measurements: article PMC9117659, “Phase transition and remodeling complex assembly are important for SS18-SSX oncogenic activity in synovial sarcomas” (Nature Communications, 2022)
Values belong to the binder of their own block, whether it stands above or below them.

Assays:
Conditions in all cases: both partners purified
[1] = target: T1, SS18^(14-101) (human, UniProt Q15532 14-101); assay: AUC; sedimentation velocity, 4 °C, interference detection, 50 mM MES pH 6.0, 50 mM NaCl, 1 mM EDTA, 1 mM DTT; SEDFIT
T1 construct: SS18, human, residues 14-101, includes the SNH domain; also called SS18 fragment aa 14-101 (includes the SNH domain); source: E. coli BL21(DE3) Codon Plus, purified
T1 sequence (Q15532 14-101): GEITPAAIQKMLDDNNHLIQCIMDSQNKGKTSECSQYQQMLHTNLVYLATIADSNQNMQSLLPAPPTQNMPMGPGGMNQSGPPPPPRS

[2] = target: T2, SNF11^(38-169) (S. cerevisiae, UniProt P38956 38-169); assay: as above
T2 construct: Cloned into one of the two multiple cloning sites of pETDuet-1
T2 sequence (looked up): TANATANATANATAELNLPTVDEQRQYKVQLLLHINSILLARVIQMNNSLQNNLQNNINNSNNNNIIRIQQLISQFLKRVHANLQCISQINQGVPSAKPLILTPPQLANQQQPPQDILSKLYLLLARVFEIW

[3] = target: T3, Human SS18 (residues 1-387), purified recombinant (human, UniProt Q15532-2 1-387); assay: SEC; purified human proteins or fragments run together on a size-exclusion column; coelution, fractions on SDS-PAGE
T3 construct: The MBP-his6 vector is told for the proteins studied in phase separation; also called SS18^(1-387); SS18-WT; source: E. coli BL21(DE3) Codon Plus, purified (Ni-NTA, SEC)
T3 sequence (Q15532 other isoform, or with tags, fused parts or gaps): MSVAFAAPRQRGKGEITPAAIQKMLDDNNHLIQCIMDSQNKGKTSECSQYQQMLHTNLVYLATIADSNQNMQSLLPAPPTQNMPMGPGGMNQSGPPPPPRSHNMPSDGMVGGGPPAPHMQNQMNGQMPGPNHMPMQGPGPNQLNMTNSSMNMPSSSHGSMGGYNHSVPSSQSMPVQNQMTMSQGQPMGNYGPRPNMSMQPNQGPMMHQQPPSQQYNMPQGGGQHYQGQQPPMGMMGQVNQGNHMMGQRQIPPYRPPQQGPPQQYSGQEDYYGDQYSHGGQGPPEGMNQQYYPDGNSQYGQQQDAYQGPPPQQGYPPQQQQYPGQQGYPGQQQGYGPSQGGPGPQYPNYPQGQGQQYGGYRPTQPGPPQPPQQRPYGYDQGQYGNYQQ

stoichiometry N [1]: 1
B1: BRG1^(172-213) (domain or fragment, human, UniProt P51532 172-213, looked up)
chain: FNQNQLHQLRAQIMAYKMLARGQPLPDHLQMAVQGKRPMPGM
notes: In the crystal it stood fused to SS18^(14-101) on one chain; source: E. coli BL21(DE3) Codon Plus, purified

stoichiometry N [2]: 1
B2: SNF2^(248-308), 60-residue fragment including the QLQ domain of SNF2 (domain or fragment, S. cerevisiae, UniProt P22082 248-308, looked up)
chain: FTAEQSELLKAQITSLKCLVNRKPIPFEFQAVIQKSINHPPDFKRMLLSLSEFARRRQPTD
notes: Cloned into one of the two multiple cloning sites of pETDuet-1

binding result [3]: binds
B3: BRG1^(1-282), N-terminal 282-residue fragment of BRG1 (domain or fragment, human, UniProt P51532 1-282, looked up)
chain: MSTPDPPLGGTPRPGPSPGPGPSPGAMLGPSPGPSPGSAHSMMGPSPGPPSAGHPIPTQGPGGYPQDNMHQMHKPMESMHEKGMSDDPRYNQMKGMGMRSGGHAGMGPPPSPMDQHSQGYPSPLGGSEHASSPVPASGPSSGPQMSSGPGGAPLDGADPQALGQQNRGPTPFNQNQLHQLRAQIMAYKMLARGQPLPDHLQMAVQGKRPMPGMQQQMPTLPPPSVSATGPGPGPGPGPGPGPGPAPPNYSRPHGMGGPNMPPPGPSGVPPGMPGQPPGGPPK
notes: Cloned into a modified pET32a (Trx-his6, N-terminal); the methods describe PreScission cleavage of the Trx-his6 tag in general; Cy3-labelled only for imaging; source: E. coli BL21(DE3) Codon Plus, purified (Ni-NTA, SEC, ion exchange); not shown: Trx, N-terminal, cleaved; His6, N-terminal, cleaved
